Substrate in data set [1]: CCCCCCCCCCCCCC[C@@H](O)[C@@H](O)[C@@H](N)CO
As to the kind of experiment: Ratio of Kcat to Km of Activity of Rhodococcus sp. M777 Endoglycoceramidase 2 K129N mutant.

Substrate in data set [2]: CCCCCCCCCCCCC/C=C/[C@@H](O)[C@@H](N)CO
The data set is described as follows: (§1) Activity of Rhodococcus sp. M777 Endoglycoceramidase 2 V269I mutant.

Substrate in data set [3]: CC(=O)N[C@H]1[C@H](O[C@@H]2[C@H](O[C@]3(C(=O)O)C[C@H](O)[C@@H](NC(C)=O)[C@H]([C@@H](O)[C@@H](O)CO)O3)[C@@H](O)[C@H](O[C@H]3[C@H](O)[C@@H](O)[C@@H](F)O[C@@H]3CO)O[C@@H]2CO)O[C@H](CO)[C@H](O)[C@@H]1O[C@@H]1O[C@H](CO)[C@H](O)[C@H](O)[C@H]1O
The description is as §1.

Substrate in data set [4]: CCCCCCCCCCCCC/C=C/[C@@H](O)[C@@H](N)CO
As to the kind of experiment: (§2) Ratio of Kcat to Km of Activity of Rhodococcus sp. M777 Endoglycoceramidase 2 V269I mutant.

Substrate in data set [5]: CC(=O)N[C@H]1[C@H](O[C@@H]2[C@H](O[C@]3(C(=O)O)C[C@H](O)[C@@H](NC(C)=O)[C@H]([C@@H](O)[C@@H](O)CO)O3)[C@@H](O)[C@H](O[C@H]3[C@H](O)[C@@H](O)[C@@H](F)O[C@@H]3CO)O[C@@H]2CO)O[C@H](CO)[C@H](O)[C@@H]1O[C@@H]1O[C@H](CO)[C@H](O)[C@H](O)[C@H]1O
The description is as §2.

Substrate in data set [6]: CCCCCCCCCCCCC/C=C/[C@@H](O)[C@@H](N)CO
The data set is described as follows: (§3) Activity of Rhodococcus sp. M777 Endoglycoceramidase 2 T257I T416A mutant.

Substrate in data set [7]: CC(=O)N[C@H]1[C@H](O[C@@H]2[C@H](O[C@]3(C(=O)O)C[C@H](O)[C@@H](NC(C)=O)[C@H]([C@@H](O)[C@@H](O)CO)O3)[C@@H](O)[C@H](O[C@H]3[C@H](O)[C@@H](O)[C@@H](F)O[C@@H]3CO)O[C@@H]2CO)O[C@H](CO)[C@H](O)[C@@H]1O[C@@H]1O[C@H](CO)[C@H](O)[C@H](O)[C@H]1O
Described as §3.

Substrate in data set [8]: CCCCCCCCCCCCC/C=C/[C@@H](O)[C@@H](N)CO
The data set is described as follows: (§4) Ratio of Kcat to Km of Activity of Rhodococcus sp. M777 Endoglycoceramidase 2 T257I T416A mutant.

Substrate in data set [9]: CC(=O)N[C@H]1[C@H](O[C@@H]2[C@H](O[C@]3(C(=O)O)C[C@H](O)[C@@H](NC(C)=O)[C@H]([C@@H](O)[C@@H](O)CO)O3)[C@@H](O)[C@H](O[C@H]3[C@H](O)[C@@H](O)[C@@H](F)O[C@@H]3CO)O[C@@H]2CO)O[C@H](CO)[C@H](O)[C@@H]1O[C@@H]1O[C@H](CO)[C@H](O)[C@H](O)[C@H]1O
The description is as §4.

Substrate in data set [10]: CCCCCCCCCCCCC/C=C/[C@@H](O)[C@@H](N)CO
As to the kind of experiment: (§5) Activity of Rhodococcus sp. M777 Endoglycoceramidase 2 A153T D314Y mutant.

Substrate in data set [11]: CC(=O)N[C@H]1[C@H](O[C@@H]2[C@H](O[C@]3(C(=O)O)C[C@H](O)[C@@H](NC(C)=O)[C@H]([C@@H](O)[C@@H](O)CO)O3)[C@@H](O)[C@H](O[C@H]3[C@H](O)[C@@H](O)[C@@H](F)O[C@@H]3CO)O[C@@H]2CO)O[C@H](CO)[C@H](O)[C@@H]1O[C@@H]1O[C@H](CO)[C@H](O)[C@H](O)[C@H]1O
The data set is described as §5.

Substrate in data set [12]: CCCCCCCCCCCCC/C=C/[C@@H](O)[C@@H](N)CO
As to the kind of experiment: (§6) Ratio of Kcat to Km of Activity of Rhodococcus sp. M777 Endoglycoceramidase 2 A153T D314Y mutant.

Substrate in data set [13]: CC(=O)N[C@H]1[C@H](O[C@@H]2[C@H](O[C@]3(C(=O)O)C[C@H](O)[C@@H](NC(C)=O)[C@H]([C@@H](O)[C@@H](O)CO)O3)[C@@H](O)[C@H](O[C@H]3[C@H](O)[C@@H](O)[C@@H](F)O[C@@H]3CO)O[C@@H]2CO)O[C@H](CO)[C@H](O)[C@@H]1O[C@@H]1O[C@H](CO)[C@H](O)[C@H](O)[C@H]1O
The data set is described as §6.

Substrate in data set [14]: CCCCCCCCCCCCC/C=C/[C@@H](O)[C@@H](N)CO
The data set is described as follows: (§7) Ratio of Kcat to Km of Activity of Rhodococcus sp. M777 Endoglycoceramidase 2 A153T D314Y R177H mutant.

Substrate in data set [15]: CC(=O)N[C@H]1[C@H](O[C@@H]2[C@H](O[C@]3(C(=O)O)C[C@H](O)[C@@H](NC(C)=O)[C@H]([C@@H](O)[C@@H](O)CO)O3)[C@@H](O)[C@H](O[C@H]3[C@H](O)[C@@H](O)[C@@H](F)O[C@@H]3CO)O[C@@H]2CO)O[C@H](CO)[C@H](O)[C@@H]1O[C@@H]1O[C@H](CO)[C@H](O)[C@H](O)[C@H]1O
Described as §7.

Substrate in data set [16]: CCCCCCCCCCCCC/C=C/[C@@H](O)[C@@H](N)CO
As to the kind of experiment: (§8) Activity of Rhodococcus sp. M777 Endoglycoceramidase 2 A153T D314Y R177H mutant.

Substrate in data set [17]: CC(=O)N[C@H]1[C@H](O[C@@H]2[C@H](O[C@]3(C(=O)O)C[C@H](O)[C@@H](NC(C)=O)[C@H]([C@@H](O)[C@@H](O)CO)O3)[C@@H](O)[C@H](O[C@H]3[C@H](O)[C@@H](O)[C@@H](F)O[C@@H]3CO)O[C@@H]2CO)O[C@H](CO)[C@H](O)[C@@H]1O[C@@H]1O[C@H](CO)[C@H](O)[C@H](O)[C@H]1O
The description is as §8.

Residue numbers refer to the chain shown, from its start. Names and notes keep the numbering of the source.

B1: Endoglycoceramidase II (Rhodococcus sp), A0ACD6B832 K129N (protein)
chain: MRRTRLVSLIVTGSLVFGGGVAAAQSSLAASGSGSGSGTALTPSYLKDDDGRSLILRGFNTASSAKSAPDGMPQFTEADLAREYADMGTNFVRFLISWRSVEPAPGVYDQQYLDRVEDRVGWYAERGYNVMLDMHQDVYSGAITPEGNSGNGAGAIGNGAPAWATYMDGLPVEPQPRWELYYIQPGVMRAFDNFWNTTGKHPELVEHYAKAWRAVADRFADNDAVVAYDLMNEPFGGSLQGPAFEAGPLAAMYQRTTDAIRQVDQDTWVCVAPQAIGVNQGLPSGLTKIDDPRAGQQRIAYCPHLYPLPLDIGDGHEGLARTLTDVTIDAWRANTAHTARVLGDVPIILGEFGLDTTLPGARDYIERVYGTAREMGAGVSYWSSDPGPWGPYLPDGTQTLLVDTLNKPYPRAVAGTPTEWSSTSDRLQLTIEPDAAITAPTEIYLPEAGFPGDVHVEGADVVGWDRQSRLLTVRTPADSGNVTVTVTPAA
In the case of B1, the kcat/Km in [1] was 3.1 M⁻¹ s⁻¹.

B2: Endoglycoceramidase II (Rhodococcus sp), A0ACD6B832 V269I (protein)
chain: B1 chain with N129K, V269I
For the protein B2, the figures for the Km in [2] and in data set [3] were 810 µM and 600 µM, respectively. The kcat in data set [2] amounted to 0.18 s⁻¹; in data set [3], 0.13 s⁻¹. For the same protein, the kcat/Km in data set [4] was found to be 222 M⁻¹ s⁻¹; in data set [5] it was 217 M⁻¹ s⁻¹.

B3: Endoglycoceramidase II (Rhodococcus sp), A0ACD6B832 T257I,T416A (protein)
chain: B1 chain with N129K, T257I, T416A
Take B3: the Km in [6] stood at 870 µM; in data set [7] it was 370 µM. Also, the kcat in [6] was determined as 0.18 s⁻¹; in data set [7], 0.11 s⁻¹. The results for the kcat/Km in data set [8] and in [9] were 206 M⁻¹ s⁻¹ and 297 M⁻¹ s⁻¹, respectively.

B4: Endoglycoceramidase II (Rhodococcus sp), A0ACD6B832 A153T,D314Y (protein)
chain: B1 chain with N129K, A153T, D314Y
On to B4, for which the Km in [10] turned out to be 1600 µM; in data set [11], 270 µM. The kcat in data set [10] is 0.64 s⁻¹; in data set [11], 0.3 s⁻¹. Further, the kcat/Km was 407 M⁻¹ s⁻¹ in [12] and 1110 M⁻¹ s⁻¹ in data set [13].

B5: Endoglycoceramidase II (Rhodococcus sp), A0ACD6B832 A153T,D314Y,R177H (protein)
chain: B1 chain with N129K, A153T, R177H, D314Y
Take B5: the catalytic efficiency (kcat/Km) in [14] worked out at 490 M⁻¹ s⁻¹; in [15] it was 350 M⁻¹ s⁻¹. Moreover, the values for the Michaelis constant (Km) in data set [16] and in data set [17] were 490 µM and 800 µM, respectively. For the same protein, the kcat in [16] was 0.24 s⁻¹; in data set [17], 0.28 s⁻¹.

Source of the values: ChEMBL document CHEMBL1212722, “Designer enzymes for glycosphingolipid synthesis by directed evolution” (Nat Chem Biol, 2009).
